Sequences and labels used below:
B1: E51D: variant at the indicated position of YPDC (protein, UniProt P06169 2-563, looked up, variant E51D)
Pyruvate decarboxylase …: SEITLGKYLFERLKQVNVNTVFGLPGDFNLSLLDKIYEVEGMRWAGNANDLNAAYAADGYARIKGMSCIITTFGVGELSALNGIAGSYAEHVGVLHVVGVPSISAQAKQLLLHHTLGNGDFTVFHRMSANISETTAMITDIATAPAEIDRCIRTTYVTQRPVYLGLPANLVDLNVPAKLLQTPIDMSLKPNDAESEKEVIDTILALVKDAKNPVILADACCSRHDVKAETKKLIDLTQFPAFVTPMGKGSIDEQHPRYGGVYVGTLSKPEVKEAVESADLILSVGALLSDFNTGSFSYSYKTKNIVEFHSDHMKIRNATFPGVQMKFVLQKLLTTIADAAKGYKPVAVPARTPANAAVPASTPLKQEWMWNQLGNFLQEGDVVIAETGTSAFGINQTTFPNNTYGISQVLWGSIGFTTGATLGAAFAAEEIDPKKRVILFIGDGSLQLTVQEISTMIRWGLKPYLFVLNNDGYTIEKLIHGPKAQYNEIQGWDHLSLLPTFGAKDYETHRVATTGEWDKLTQDKSFNDNSKIRMIEIMLPVFDAPQNLVEQAKLTAATNAKQ
B2: E51A: variant at the indicated position of YPDC (protein, UniProt P06169 2-563, looked up, variant E51A)
Pyruvate decarboxylase …: B1 Pyruvate decarboxylase … with D50A
B3: E51Q: variant at the indicated position of YPDC (protein, UniProt P06169 2-563, looked up, variant E51Q)
Pyruvate decarboxylase …: B1 Pyruvate decarboxylase … with D50Q
B4: C221E/C222A: double-mutant of YPDC with a substitution at the neighboring Cys222; permanently activated form (protein, UniProt P06169 2-563, looked up, variant C221E C222A)
Pyruvate decarboxylase …: B1 Pyruvate decarboxylase … with D50E, C220E, C221A
B5: D28A: variant at the indicated position of YPDC (protein, UniProt P06169 2-563, looked up, variant D28A)
Pyruvate decarboxylase …: B1 Pyruvate decarboxylase … with D27A, D50E
B6: E91D: variant at the indicated position of YPDC (protein, UniProt P06169 2-563, looked up, variant E91D)
Pyruvate decarboxylase …: B1 Pyruvate decarboxylase … with D50E, E90D
B7: E51N: variant at the indicated position of YPDC (protein, UniProt P06169 2-563, looked up, variant E51N)
Pyruvate decarboxylase …: B1 Pyruvate decarboxylase … with D50N
B8: E477Q: variant at the indicated position of YPDC (protein, UniProt P06169 2-563, looked up, variant E477Q)
Pyruvate decarboxylase …: B1 Pyruvate decarboxylase … with D50E, E476Q

Positions count from the first letter of the chain named. Names may count otherwise. Marks after values point to notes of the source that are not given here.

The test system of the first data set is yeast pyruvate decarboxylase (YPDC). Kind of data set: YPDC assay coupled to alcohol dehydrogenase/NADH. Format: biochemical, Saccharomyces cerevisiae. The conditions noted are these: per subunit; pyruvate as substrate; pH 6.0, 30 °C.
On to B1, for which the kcat / subunit worked out at 0.049 s⁻¹.

With B2, the kcat / subunit turned out to be 0.0043 s⁻¹.

Take B3: the kcat / subunit was 0.035 s⁻¹.

On to B4, for which the kcat / subunit amounted to 18.2 s⁻¹.

For the molecule B5, the kcat / subunit came to 0.066 s⁻¹.

As to B6, the kcat / subunit came out at 11 s⁻¹.

For B7, the kcat / subunit turned out to be 0.0024 s⁻¹.

Take B8: the kcat / subunit worked out at 0.086 s⁻¹.

Still in this data set, the particulars now being: pyruvate as substrate.
Turning to B1, the “decrease in kcat as compared to YPDC” value stood at 1000 fold.

For the molecule B2, the “decrease in kcat as compared to YPDC” value is recorded as 10,000 fold.

B7: the “decrease in kcat as compared to YPDC” value is recorded as 10,000 fold.

Still in this data set, the particulars now being: pyruvate as substrate; pH 6.0, 30 °C.
Regarding B1, the S0.5 was found to be 23.1 ± 1.3 mM.

Take B2: the S0.5 amounted to 0.72 ± 0.1 mM.

B3 displayed an S0.5 of 14.9 ± 1.3 mM.

Regarding B7, the S0.5 was 31.5 ± 12 mM.

The test system is the same in the next data set.
Experiment: not given
The conditions noted are these: cited from earlier work.
Take B4: the “reduction in activity compared to YPDC” value was 2–5 fold.

Staying with this data set, now noted: pyruvate as substrate; cited from earlier work.
For B4, the S0.5 is recorded as 1.47 ± 0.04 ^d mM.

As to B5, the S0.5 was 1.66 ± 0.25 ^b mM.

Regarding B6, the S0.5 is 1.79 ± 0.22 ^c mM.

Take B8: the S0.5 is 3.02 ± 0.22 ^b mM.

The values above are taken from article PMC3295232 (Journal of the American Chemical Society, 2012).
